The results in this text go back to patent publication US20100136018A1 (Ablynx, published 2010).

For experiment [1], the target named is T1, ectodomain of human pIgR (R&D Systems Cat #2717-PG) (human, UniProt P01833 19-638).
T1 construct: extracellular domain; Bought protein, immobilised on Maxisorp plates; also called pIgR ectodomain
The experiment in a line: competition ELISA, pIgR ectodomain coated at 5 ug/ml, 1 ug/ml IgA preincubated with purified Nanobody at 1600, 200, 25 and 3.3 nM, bound IgA detected with anti-IgA; blocked ligand IgA.

Experiment [2] deals with T1, ectodomain of human pIgR (R&D Systems …). The experiment in a line: ELISA, pIgR ectodomain coated at 5 ug/ml, 10 ul periplasmic extract in 100 ul, anti-myc detection. Here is the method:
In short, 5 ug/ml pIgR ectodomain was immobilized on Maxisorp microtiter plates (Nunc) and free binding sites were blocked using 4% Marvel in PBS. Next, 10 ul of periplasmic extract containing Nanobody of the different clones in 100 ul 2% Marvel PBST were allowed to bind to the immobilized antigen. […] Binding specificity was determined based on OD values compared to controls having received no Nanobody (low control).
Background: An ELISA detects its analyte on a solid surface through an enzyme-linked reagent.

Experiment [3] has the same target. As to the kind of experiment: designation in the sequence table; clones from phage selection and ELISA screening on pIgR ectodomain.
Experiment [4] addresses T2, ectodomain of human FcgR1 (R&D Systems Cat #1257-FC) (human, UniProt P12314 16-292).
T2 construct: extracellular domain; Bought protein, immobilised on Maxisorp plates; also called FcgR1 ectodomain; Fc gamma R1
As to the kind of experiment: designation in the sequence table; clones from phage selection and ELISA screening on FcgR1 ectodomain.

The target of experiment [5] is T2, ectodomain of human FcgR1 (R&D Systems …). The experiment in a line: ELISA, FcgR1 ectodomain coated at 3 ug/ml, 10 ul periplasmic extract in 100 ul, anti-myc detection. How it is done:
In short, 3 ug/ml FcgR1 ectodomain was immobilized on Maxisorp microtiter plates (Nunc) and free binding sites were blocked using 4% Marvel in PBS. Next, 10 ul of periplasmic extract containing Nanobody of the different clones in 100 ul 2% Marvel PBST were allowed to bind to the immobilized antigen. […] Binding specificity was determined based on OD values compared to controls having received no Nanobody (low control).

T2 sequence (P12314 16-292): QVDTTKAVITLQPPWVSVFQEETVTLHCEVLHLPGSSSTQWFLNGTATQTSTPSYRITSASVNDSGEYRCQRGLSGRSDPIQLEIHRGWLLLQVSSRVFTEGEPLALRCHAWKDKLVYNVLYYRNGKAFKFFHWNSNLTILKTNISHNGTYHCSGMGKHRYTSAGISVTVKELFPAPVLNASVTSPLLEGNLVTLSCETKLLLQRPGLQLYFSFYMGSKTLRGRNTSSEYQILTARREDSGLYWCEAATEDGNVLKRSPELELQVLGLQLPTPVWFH
T1 sequence (P01833 19-638): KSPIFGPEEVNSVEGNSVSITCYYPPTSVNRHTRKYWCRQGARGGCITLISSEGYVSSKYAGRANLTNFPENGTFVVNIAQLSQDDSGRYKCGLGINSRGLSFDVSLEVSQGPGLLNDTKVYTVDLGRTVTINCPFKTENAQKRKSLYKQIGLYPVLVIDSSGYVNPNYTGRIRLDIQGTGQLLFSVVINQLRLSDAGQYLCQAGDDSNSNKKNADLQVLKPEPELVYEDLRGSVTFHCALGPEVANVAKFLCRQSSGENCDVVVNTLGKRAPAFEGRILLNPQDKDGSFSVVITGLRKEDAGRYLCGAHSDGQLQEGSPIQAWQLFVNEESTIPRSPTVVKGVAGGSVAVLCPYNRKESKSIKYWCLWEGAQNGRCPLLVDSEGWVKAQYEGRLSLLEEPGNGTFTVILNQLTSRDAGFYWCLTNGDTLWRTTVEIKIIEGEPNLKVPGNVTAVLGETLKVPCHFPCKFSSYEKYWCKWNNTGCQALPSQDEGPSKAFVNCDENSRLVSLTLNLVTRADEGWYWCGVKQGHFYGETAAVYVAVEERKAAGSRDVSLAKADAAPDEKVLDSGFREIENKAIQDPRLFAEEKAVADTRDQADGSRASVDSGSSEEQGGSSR

B1: 1D7 (VHH)
VHH: EVQLVESGGGLVQSGGSLRLSCAASGRAFNYYAMGWFRQAPGKERELVAVINWSGGTTSYADSVKGRFTISRSNAKNTVYLQMSSLKPEDTAVYYCAADSIYRTSKDYNYWGQGTQVTVSS
notes: Nanobody against pIgR
On to B1, for which, in experiment [1], the “IC50 (read off the curve)” value was approximately 80 nM.

B2: 4_h1 (VHH)
VHH: EVQLVKSGGGLVQAGDSLRLSCAASGRTSSSVTMGWFRQAPGKERDFVAAISWSGGSTYYADSVKGRFTISRDNAKNTVYLQMNSLKPEDTAVYYCAAVVPSDPIIYYTDYVDYDYWGQGTQVTVSS
notes: Nanobody against pIgR
For B2, the binding result in experiment [2] is “binds”.

B3: 4 E9 (VHH)
VHH: EVQLVESGGGLVQAGGSLRLSCAASGSILSTNDMGWYRQAPGNQRELVARISRGSSTIYTESVKGRFTISRDNAKNTVYLQMNSLKPEDTAVYYCNADMLPSDLSHGYYYRDYWGQGTQVTVSS
notes: Nanobody against pIgR
B3: the binding result in experiment [3] was “binds”.

B4: 2_f3 (VHH)
VHH: EVQLVESGGGLVQAGGSLRLSCAASGRTFTIYTMGWFRQAPGKAREFISALRWSGGSTYTFYADSVKGRFTISRDNAKNTLYLQMNSLKSEDTAIYYCGMVDPRAPYMRPDSTDSYAYWGQGTQVTVSS
notes: Nanobody against pIgR
In the case of B4, the binding result in experiment [3] is given as “binds”.

B5: 4C11 (VHH)
VHH: EVQLVESGGGLVQPGGSLRLSCAASGFTFSSYAMTWVRQGLGKGLEWVSIISGNGGSTSYADSVKGRFTISRDNAKNTLYLQMNSLKPEDTAVYYCAKWDGLGTLPGSQGTQVTVSS
notes: Nanobody against pIgR
Consider B5, for which the binding result in experiment [3] is “binds”.

B6: 2_d2 (VHH)
VHH: EVQLVESGGGQVQAGGSLRLSCVASERTFSYYDLAARAWFRQAPGKERELVSASTWNGGYTYYVDSVKGRFTVSTDDAGDTMYLQMNSLEPEDTAVYYCAARRAYSSDLHDYRTFDYWGQGTQVTVSS
notes: Nanobody against pIgR
Regarding B6, the binding result in experiment [3] is “binds”.

B7: 48D11 (VHH)
VHH: EVQLVESGGGLVQAGDSLTLSCVASGRTFSNYGMGWFRQAPGKEREFVASINWGDGNTYYANSVKDRFAISKDHAKNTVYLQMNSLKPEDTALYYCAAVSSNTEIFDTWGQGIQVTVSS
notes: Nanobody against FcgR1
Take B7: in experiment [4], the binding result is recorded as “binds”.

B8: 49 E4 (VHH)
VHH: EVQLVESGGGLVQAGDSLTLSCVASGRTFNNYGMGWFRQAPGKEREFVASINWGNGKTYYANSVKDRFAISKDHAKNTVYLQMNSLKPEDTALYYCAAVSSNTETFDTWGQGIQVTVSS
notes: Nanobody against FcgR1
In the case of B8, the binding result in experiment [5] was “binds”.

B9: 49F9 (VHH)
VHH: EVQLVESGGGLVQAGDSLTLSCVASGRTFNNYGMGWFRQAPGKEREFVASINWGNGKTYYANPVKDRFAISKDHAKNTVYLQMNSLKPEDTALYYCAAVSSNTETFDTWGQGIQVTVSS
notes: Nanobody against FcgR1
On to B9, for which the binding result in experiment [5] was “binds”.

B10: 49F4 (VHH)
VHH: EVQLVESGGGLVQAGDSLTLSCVASGRTFSANGMGWFRQAPGKEREFVASIAWGDGNTYYANSVKDRFAISKDHAKNTVYLQMNSLKPEDTALYYCAAVSSNSETFDTWGQGIQVTVSS
notes: Nanobody against FcgR1
B10: the binding result in experiment [4] was “binds”.

B11: 48D6 (VHH)
VHH: EVQLVESGGGLVQAGDSLTLSCVASGRTFSAYGMGWFRQAPGKEREFVASINWGGGNTYYANSVKDRFAISKDHAKNTVYLQMNSLKPEDTALYYCAAVSSNTEIFDTWGQGIQVTVSS
notes: Nanobody against FcgR1
On to B11, for which, in experiment [5], the binding result is recorded as “binds”.

B12: 49D4 (VHH)
VHH: EVQLVESGGGLVQAGDSLTLSCVASGRRFSAYGMGWFRQAPGKEREFVASINWGDGNTYYANSVKDRFAISKDHAKNTVYLQMNSLKPEDTALYYCAAVSSNTEIFDTWGQGIQVTVSS
notes: Nanobody against FcgR1
As for B12, in experiment [5], the binding result was “binds”.

B13: 1_g10 (VHH)
VHH: EVQLVESGGGLVQAGDSLRLSCAASGRTFSTYAMAWFRQAPGKDREFVAAISWSSDMTYYLDSVKGRFTISRDNAKNTVFLQMNSLKPEDTAVYYCASGAYYAGSSTSPYNYWGQGTQVTVSS
notes: Nanobody against pIgR
For the molecule B13, the binding result in experiment [2] is “binds”.

B14: 4_a7 (VHH)
VHH: EVQLVESGGGLVQAGGSLRLSCEDSGRTFGDYIMGWFRQAPGKERDFVAAISWTGDSTYYKYYSDSAKGRFTASRDNAKNTAYLQMNGLKPEDTAVYYCAARTFRIDYDPRTASTYNYWGQGIQVTVSS
notes: Nanobody against pIgR
On to B14, for which the binding result in experiment [2] was “binds”.

B15: 1B7 (VHH)
VHH: EVQLVESGGGLVQAGGSLRLSCAASGFTFDDYAIGWFRQAPGKEREWVSCISRSDGSTYYADSVKGRFTISSDNAKNTVYLQMNSLKPEDTAVYHCAADAIGSFPCPAGVYDYWGQGTQVTVSS
notes: Nanobody against pIgR
In the case of B15, the binding result in experiment [3] is listed as “binds”.

B16: 4_g6 (VHH)
VHH: EVQLVESGGGLVQAGGSLRLSCAASGFTFDDYAIGWFRQAPGKEREGVSCISSRDGTTYYADSVKGRFTISSDNAKNTVYLQMNSLKPEDTAVYYCAADLVGSFPCPVAAYDYWGQGTQVTVSS
notes: Nanobody against pIgR
Turning to B16, the binding result in experiment [2] is on record as “binds”.

B17: 4G11 (VHH)
VHH: EVQLVESGGGLVQAGGSLRLSCAASGFTFDDYAIGWFRQAPGKEREGVSCISSRDGMTYYADSVKGRFTISSDNARNTVYLQMNSLKPEDTAVYYCAADLVGSFPCPVAAYDYWGQGTQVTVSS
notes: Nanobody against pIgR
Take B17: the binding result in experiment [3] is “binds”.

B18: 4_e11 (VHH)
VHH: EVQLVESGGGLVQAGGSLRLSCAASGFTFDDYAIGWFRQAPGKEREGVSCINNSDGSTYYADSVKGRFTISSDNAKNTVYLQMNSLKPEDTAVYYCAADFVGGSYCLFPTYNYWGQGTQVTVSS
notes: Nanobody against pIgR
Regarding B18, the binding result in experiment [3] is recorded as “binds”.

B19: 49C5 (VHH)
VHH: EVQLVESGGGLVQAGGSLGLSCVASGRTFVSGGMGWFRQAPGKEREFVASIVWIGGRTYYADSVKGRFTISGDNAKSTVTLQMNSLKPEDTATYYCADGDLATGTYDYWGQGTQVTVSS
notes: Nanobody against FcgR1
With B19, in experiment [5], the binding result is on record as “binds”.

B20: 49 E10 (VHH)
VHH: EVQLVESVGGLVQTGGSLRLSCVASGRTFVSGGMGWFRQAPGKEREFVAAIVWIGGRTYYADSVKGRFTISGDNAKSTVTLQMNSLKPEDTALYYCADGDLATGTYDYWGQGTQVTVSS
notes: Nanobody against FcgR1
On to B20, for which the binding result in experiment [4] is on record as “binds”.

B21: 1C7 (VHH)
VHH: EVQLVESGGGLVQPGGSLRLSCAASGFAFSRYGMYWVRQAPGKGLEWVSTINSGGDYIIYADSVKGRFTISRDNAKNTLYLQMNSLKPEDTAVYYCAEGYRGSEWPPPAFTLQRADFASWGQGTQVTVSS
notes: Nanobody against pIgR
Consider B21, for which the binding result in experiment [3] is given as “binds”.

B22: 1 E2 (VHH)
VHH: EVQLVESGGGLVQAGGSLRLSCVASGFILREYNMGWFRQAPGKEREIVAAIAWTGTNSYYVDSVKGRFTISRDDTKNTVYLQMNSLNPEDTGVYHCAAEGYVSNFPRSSADEYDYWGQGTQVTVSS
notes: Nanobody against pIgR
Take B22: the binding result in experiment [3] is “binds”.

B23: 1C2 (VHH)
VHH: EVQLVESGGGLAQPGGSLRLSCAASGFAFSSYWMYWVRQAPGKGLEWVSAISTGGGGTYYADSVKGRFTISRDNAKNTLYLQMNSLKPEDTARYYCARDEAPTFDYSGNYAYTGSDPNDYWGQGTQVTVSS
notes: Nanobody against pIgR
B23: the binding result in experiment [3] was “binds”.
